From patent US20120238509A1 come the findings set out here.

No end group written: not given here. *: point of attachment. Acm = CC(=O)NC*

The labels stand for the following.
B1: mUcn 2 prohormone (peptide)
peptide: TPIPTFQLLPQNSLETTPSSVTSESSSGTTTGPSASWSNSKASPYLDTRVILSLDVPIGLLRILLEQARYKAARNQAATNAQILAHV
modifications: here or on the partner: amidated at the C-terminus
B2: hUcn 2 prohormone (peptide)
peptide: IPTFQLRPQNSPQTTPRPAASESPSAAPTWPWAAQSHCSPTRHPGSRIVLSLDVPIGLLQILLEQARARAAREQATTNARILARV
modifications: here or on the partner: amidated at the C-terminus
B3: [Cys^1, 51(Acm)]-hUcn2(1-51)-OH) (peptide)
peptide: C(Acm)SPTRHPGSRIVLSLDVPIGLLQILLEQARARAAREQATTNARILARVGHC(Acm)-OH

Chain of CRFR^2 expressed by A7r5 cells, P47866 (P47866 20-411): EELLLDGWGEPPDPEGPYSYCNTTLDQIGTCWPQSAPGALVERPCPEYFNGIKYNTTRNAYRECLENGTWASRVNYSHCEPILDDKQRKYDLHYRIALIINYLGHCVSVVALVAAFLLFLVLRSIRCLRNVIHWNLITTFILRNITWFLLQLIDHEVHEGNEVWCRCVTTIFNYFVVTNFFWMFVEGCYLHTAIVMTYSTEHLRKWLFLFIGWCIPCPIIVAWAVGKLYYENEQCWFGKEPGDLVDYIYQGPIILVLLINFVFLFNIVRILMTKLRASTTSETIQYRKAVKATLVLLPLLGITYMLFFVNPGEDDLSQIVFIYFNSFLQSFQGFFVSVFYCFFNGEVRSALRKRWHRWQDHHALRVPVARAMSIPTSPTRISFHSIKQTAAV

This experiment concerns the target CRFR^2 expressed by A7r5 cells, P47866. Put plainly: cell-based or functional assay.
As for IVLSLDVPIGLLQILLEQARARAAREQATTNARILARV-NH2 [hUcn 2], the cAMP A7r5 (EC50, nM) was found to be 0.11 nM.
For IVLSLDVPIGLLQILLEQARARAAREQATTNARILARV-OH [hUcn 2-OH], the cAMP A7r5 (EC50, nM) came to 90.4 nM.
Take IVLSLDVPIGLLQILLEQARARAAREQATTNARILARVGHC-OH [hUcn 2-GHC-OH]: the cAMP A7r5 (EC50, nM) turned out to be 13.9 nM.
Molecule HPGSRIVLSLDVPIGLLQILLEQARARAAREQATTNARILARV-NH2 [SRP (HPGSR-hUcn 2)] yielded a cAMP A7r5 (EC50, nM) of 0.09 nM.
The figure for RIVLSLDVPIGLLQILLEQARARAAREQATTNARILARV-NH2 [R^0-hUcn 2] is 0.027 nM.
For the molecule VILSLDVPIGLLRILLEQARYKAARNQAATNAQILAHV-NH2 [mUcn 2], the cAMP A7r5 (EC50, nM) is 0.07 nM.
Regarding B1, the cAMP A7r5 (EC50, nM) was determined as 0.53 nM.
Molecule IVLSLDVPIGLLQILLEQARARAAREQATTNARILARVG-OH [hUcn 2-G-OH] displayed a cAMP A7r5 (EC50, nM) of 6.3 nM.
Regarding IVLSLDVPIGLLQILLEQARARAAREQATTNARILARVGH-OH [hUcn 2-GH-OH], the cAMP A7r5 (EC50, nM) was determined as 2.9 nM.
The molecule B2 yielded a cAMP A7r5 (EC50, nM) of 2.3 nM.
RVILSLDVPIGLLRILLEQARYKAARNQAATNAQILAHV-NH2 [R^0-mUcn 2]: the cAMP A7r5 (EC50, nM) was 0.05 nM.
Molecule B3 yielded a cAMP A7r5 (EC50, nM) of 9.5 nM.
